The record followed here is patent US20090130676A1 (GENERAL HOSPITAL, published 2009).

To fix the notation:
B1: pep12 (FIG. 4B numbering), thioredoxin prey fusion (designed binder, not shown: large carriers)
chain: MSDKIIHLTDDSFDTDVLKADGAILVDFWAEWCGPRPLTGRWVVWGRRHEECGLTGPCKMIAPILDEIADEYQGKLTVAKLNIDQNPGTAPKYGIRGIPTLLLFKNGEVAATKVGALSKGQLKEFLDANLA
B2: pep9 (FIG. 4B numbering), thioredoxin prey fusion (designed binder, not shown: large carriers)
chain: MSDKIIHLTDDSFDTDVLKADGAILVDFWAEWCGPQQRFVFSPSWFTCAGTSDFWGPEPLFDWTRDGPCKMIAPILDEIADEYQGKLTVAKLNIDQNPGTAPKYGIRGIPTLLLFKNGEVAATKVGALSKGQLKEFLDANLA
B3: pep7 (FIG. 4B numbering), thioredoxin prey fusion (designed binder, not shown: large carriers)
chain: MSDKIIHLTDDSFDTDVLKADGAILVDFWAEWCGPQLYAGCYLGVVIASSLSIRVGPCKMIAPILDEIADEYQGKLTVAKLNIDQNPGTAPKYGIRGIPTLLLFKNGEVAATKVGALSKGQLKEFLDANLA
B4: pep13 (FIG. 4B numbering), thioredoxin prey fusion (designed binder, not shown: large carriers)
chain: MSDKIIHLTDDSFDTDVLKADGAILVDFWAEWCGPPVCCMMYGHRTAPHSVFNVDGPCKMIAPILDEIADEYQGKLTVAKLNIDQNPGTAPKYGIRGIPTLLLFKNGEVAATKVGALSKGQLKEFLDANLA
B5: pep6 (FIG. 4B numbering), thioredoxin prey fusion (designed binder, not shown: large carriers)
chain: MSDKIIHLTDDSFDTDVLKADGAILVDFWAEWCGPRVKLGYSFWAQSLLRCISVGGPCKMIAPILDEIADEYQGKLTVAKLNIDQNPGTAPKYGIRGIPTLLLFKNGEVAATKVGALSKGQLKEFLDANLA
B6: pep14 (FIG. 4B numbering), thioredoxin prey fusion (designed binder, not shown: large carriers)
chain: MSDKIIHLTDDSFDTDVLKADGAILVDFWAEWCGPWSPELLRAMVAFRWLLERRPGPCKMIAPILDEIADEYQGKLTVAKLNIDQNPGTAPKYGIRGIPTLLLFKNGEVAATKVGALSKGQLKEFLDANLA

T5 sequence (Q00526 whole entry): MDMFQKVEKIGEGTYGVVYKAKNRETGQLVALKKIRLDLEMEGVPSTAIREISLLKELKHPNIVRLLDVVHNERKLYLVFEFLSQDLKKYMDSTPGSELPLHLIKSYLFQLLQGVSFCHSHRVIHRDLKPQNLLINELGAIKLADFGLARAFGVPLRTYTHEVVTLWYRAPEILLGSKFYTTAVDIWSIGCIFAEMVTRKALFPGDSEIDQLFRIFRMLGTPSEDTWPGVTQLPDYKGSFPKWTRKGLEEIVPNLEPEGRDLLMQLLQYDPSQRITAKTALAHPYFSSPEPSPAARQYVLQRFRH

The first assay deals with T1, Cdk4 (Homo sapiens (Human), UniProt P11802 2-303).
T1 construct: construct not described
T1 sequence (P11802 2-303 limits assumed): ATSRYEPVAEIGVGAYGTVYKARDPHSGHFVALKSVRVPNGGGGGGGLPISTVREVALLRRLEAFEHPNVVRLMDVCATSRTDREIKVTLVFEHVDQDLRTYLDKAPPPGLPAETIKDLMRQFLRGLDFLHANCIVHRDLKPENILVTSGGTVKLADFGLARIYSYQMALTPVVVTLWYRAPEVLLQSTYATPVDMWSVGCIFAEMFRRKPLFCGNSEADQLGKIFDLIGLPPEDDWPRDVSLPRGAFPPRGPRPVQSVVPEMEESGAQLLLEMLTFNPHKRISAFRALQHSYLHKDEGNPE
The assay can be described thus: yeast interaction trap mating assay (FIG. 4A).
Turning to B1, the binding result was “no binding”.

B2: the binding result is listed as “no binding”.

Take B3: the binding result is on record as “no binding”.

B4: the binding result is “no binding”.

As for B5, the binding result is “no binding”.

For B6, the binding result is “no binding”.

In the next assay the target is T2, CDC28 (Saccharomyces cerevisiae (strain ATCC …, UniProt P00546 1-298)).
T2 construct: bait construct not described
T2 sequence (P00546 whole entry): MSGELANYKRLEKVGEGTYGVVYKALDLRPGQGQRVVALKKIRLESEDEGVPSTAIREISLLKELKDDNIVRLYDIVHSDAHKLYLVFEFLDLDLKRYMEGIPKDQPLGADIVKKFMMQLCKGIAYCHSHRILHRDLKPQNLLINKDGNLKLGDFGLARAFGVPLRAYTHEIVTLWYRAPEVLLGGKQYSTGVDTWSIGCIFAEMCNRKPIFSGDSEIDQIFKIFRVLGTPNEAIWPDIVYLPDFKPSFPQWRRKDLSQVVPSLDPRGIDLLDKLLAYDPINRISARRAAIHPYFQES
The assay can be described thus: yeast interaction trap mating assay, lacZ reporter on Xgal.
For the molecule B1, the binding result is given as “no binding”.

For B2, the binding result is given as “no binding”.

Take B3: the binding result is reported as “no binding”.

In the case of B4, the binding result was “no binding”.

With B5, the binding result is “no binding”.

Turning to B6, the binding result was “no binding”.

In the next assay the target is T3, Drosophila Cdc2c (Drosophila, UniProt P23573 1-314, limits assumed).
T3 construct: bait construct not described
T3 sequence (P23573 whole entry): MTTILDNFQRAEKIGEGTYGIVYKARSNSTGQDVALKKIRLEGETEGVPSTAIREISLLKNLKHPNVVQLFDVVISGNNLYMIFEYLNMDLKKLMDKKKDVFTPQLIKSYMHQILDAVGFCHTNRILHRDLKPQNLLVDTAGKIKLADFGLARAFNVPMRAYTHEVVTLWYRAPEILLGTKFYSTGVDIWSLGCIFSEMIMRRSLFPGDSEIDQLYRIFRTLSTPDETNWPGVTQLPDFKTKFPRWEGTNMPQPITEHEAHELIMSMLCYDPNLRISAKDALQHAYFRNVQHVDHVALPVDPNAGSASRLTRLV
The description is as above.
For B1, the binding result is given as “no binding”.

As to B2, the binding result was “no binding”.

Take B3: the binding result is “no binding”.

Consider B4, for which the binding result is given as “no binding”.

B5: the binding result is “no binding”.

With B6, the binding result is given as “no binding”.

For a further assay, the target named is T4, Cdc2 (Homo sapiens (Human), UniProt P06493 1-297).
T4 construct: bait construct and species not described
T4 sequence (P06493 whole entry): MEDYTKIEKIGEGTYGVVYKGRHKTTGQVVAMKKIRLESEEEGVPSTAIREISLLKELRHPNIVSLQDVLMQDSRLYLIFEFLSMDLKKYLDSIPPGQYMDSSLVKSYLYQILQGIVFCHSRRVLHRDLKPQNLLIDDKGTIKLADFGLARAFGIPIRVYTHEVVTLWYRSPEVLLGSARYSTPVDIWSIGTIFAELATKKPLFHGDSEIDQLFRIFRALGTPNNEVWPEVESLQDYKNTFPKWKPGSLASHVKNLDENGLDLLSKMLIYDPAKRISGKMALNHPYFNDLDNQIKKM
Described as above.
Take B1: the binding result is “no binding”.

On to B2, for which the binding result is “no binding”.

As for B3, the binding result is “no binding”.

For B4, the binding result was “no binding”.

Consider B5, for which the binding result was “no binding”.

As for B6, the binding result is “no binding”.

The next assay concerns the target T5, LexA-Cdk3 bait (human, UniProt Q00526 1-305, limits assumed).
T5 construct: also called human Cdk3; not shown: bacterial LexA protein
The assay is described as above.
As for B1, the binding result is “no binding”.

With B2, the binding result is given as “no binding”.

Regarding B3, the binding result was “no binding”.

As to B4, the binding result is recorded as “no binding”.

With B5, the binding result is “no binding”.

As to B6, the binding result is “no binding”.
